Measurements published in patent US20110038861 (published 2011).
Read-outs that look alike come from different tables or passages of the source.

What was measured:
Abeta 1-40 [1] = target: Abeta 1-40 (human); test: SPR
Abeta 1-40 [2] = target: Abeta 1-40 (human)
beta-APP = beta-APP (human); test: ELISA
Abeta 1-40 [3] = target: Abeta 1-40 (human); remark: listed apart in the source

Chain of Abeta 1-40 (human) (P05067 672-711): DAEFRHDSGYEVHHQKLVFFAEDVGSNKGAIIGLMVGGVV
Chain of beta-APP (human) (chain, as listed by the source): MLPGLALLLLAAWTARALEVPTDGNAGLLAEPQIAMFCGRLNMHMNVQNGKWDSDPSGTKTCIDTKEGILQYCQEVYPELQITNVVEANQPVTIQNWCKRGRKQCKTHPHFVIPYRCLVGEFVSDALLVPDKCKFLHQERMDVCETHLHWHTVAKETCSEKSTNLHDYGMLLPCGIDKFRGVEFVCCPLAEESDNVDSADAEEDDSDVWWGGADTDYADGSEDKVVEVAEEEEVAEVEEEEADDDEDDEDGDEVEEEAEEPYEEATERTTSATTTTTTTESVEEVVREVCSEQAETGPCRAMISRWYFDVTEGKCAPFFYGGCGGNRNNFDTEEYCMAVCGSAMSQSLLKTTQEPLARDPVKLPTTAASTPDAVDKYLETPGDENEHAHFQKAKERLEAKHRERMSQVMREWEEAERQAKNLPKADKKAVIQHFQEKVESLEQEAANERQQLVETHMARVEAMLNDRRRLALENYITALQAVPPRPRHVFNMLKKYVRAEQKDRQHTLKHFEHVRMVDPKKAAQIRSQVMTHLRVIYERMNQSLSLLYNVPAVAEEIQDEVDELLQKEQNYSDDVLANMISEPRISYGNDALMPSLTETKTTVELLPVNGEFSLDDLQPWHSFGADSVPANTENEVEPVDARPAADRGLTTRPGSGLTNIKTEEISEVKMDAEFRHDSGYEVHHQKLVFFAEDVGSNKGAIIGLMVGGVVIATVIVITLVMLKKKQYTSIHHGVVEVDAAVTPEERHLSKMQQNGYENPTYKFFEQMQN

Row | Kd (Abeta 1-40 [1]) [nM] | Kd (Abeta 1-40 [2]) [nM] | binding result (beta-APP) | Kd (Abeta 1-40 [3]) [nM] | Binder
1 | 76 | – | – | – | Mouse 2286 Fab (antibody, V domains shown) VH: EVKLLESGGGLVQPGGSLKLSCAASGFDFSRYWMNWVRQAPGKGLEWIGEINPDSSTINYTPSLKDKFIISRDNAKNTLYLQMSKVRSEDTALYYCARQMGYWGQGTTLTVSS VL: DIQMTQTTSSLSASLGDRVTISCSASQGISNYLNWFQQKPDGTVKLLIYYTSSLHSGVPSRFSGSGSGTDYSLTISNLEPEDIATYYCQQYRKLPYTFGGGTKLEIKR
2 | – | – | no binding | 0.9 | 2324 (10B10.2E6) (antibody, V domains shown) VH: VTLKESGPGILKPSQTLSLTCSFSGFSLSTSGMGVGWIRQSSGKGLEWLAHIWWDDDKYYNPSLKSQLTISKDTSRNQVFLKITSVDTADTATYYCARRGVRHRDYFDYWGQGTTLTVSS VL: DVLMTQTPLSLPVSLGDQASISCRSSQSIVHSNGNTYLEWYLQKPGQSPKLLIYKVSNRFSGVPDRFSGSGSGTDFTLKISRVEAEDLGVYYCFQGSRVPLTFGAGTKLELKR

Further lines, the binder ahead of its results:

Row | Binder | Kd (Abeta 1-40 [1]) [nM] | Kd (Abeta 1-40 [2]) [nM] | binding result (beta-APP) | Kd (Abeta 1-40 [3]) [nM]
3 | 2286 (8A1.2A1) (antibody, V domains shown) VH: EVKLLESGGGLVQPGGSLKLSCAASGFDFSRYWMNWVRQAPGKGLEWIGEINPDSSTINYTPSLKDKFIISRDNAKNTLYLQMSKVRSEDTALYYCARQMGYWGQGTTLTVSS VL: DIQMTQTTSSLSASLGDRVTISCSASQGISNYLNWFQQKPDGTVKLLIYYTSSLHSGVPSRFSGSGSGTDYSLTISNLEPEDIATYYCQQYRKLPYTFGGGTKLEIKR | – | 2.7 | no binding | –
4 | Humanized 2286 Fab (O8; VH3) (antibody, V domains shown) VH: EVQLVESGGGLVQPGGSLRLSCAASYWMNWVRQAPGKGLEWVSEINPDSSTINYTPSLKDRFTISRDNAKNTLYLQMNSLRAEDTAVYYCARQMGYWGQGTTLTVSS VL: DIQMTQSPSSLSASVGDRVTITCSASQGISNYLNWYQQKPGKAPKLLIYYTSSLHSGVPSRFSGSGSGTDFTFTISSLQPEDIATYYCQQYRKLPYTFGGGTKVEIKR | 500 | – | – | –
5 | Humanized 2286 Fab (O8; VH4) (antibody, V domains shown) VH: QVQLQESGPGLVKPSETLSLTCTVSYWMNWIRQPPGKGLEWIGEINPDSSTINYTPSLKDRVTISKDTSKNQFSLKLSSVTAADTAVYYCARQMGYWGQGTLVTVSS VL: DIQMTQSPSSLSASVGDRVTITCSASQGISNYLNWYQQKPGKAPKLLIYYTSSLHSGVPSRFSGSGSGTDFTFTISSLQPEDIATYYCQQYRKLPYTFGGGTKVEIKR | 500 | – | – | –
